The record followed here is article PMC9926122.

In this assay the target is recombinant EB1 (HS-AFM and microtubule experiments) (human) (UniProt Q15691).
Sequence of recombinant EB1 (HS-AFM and microtubule experiments) (human) (Q15691 whole entry): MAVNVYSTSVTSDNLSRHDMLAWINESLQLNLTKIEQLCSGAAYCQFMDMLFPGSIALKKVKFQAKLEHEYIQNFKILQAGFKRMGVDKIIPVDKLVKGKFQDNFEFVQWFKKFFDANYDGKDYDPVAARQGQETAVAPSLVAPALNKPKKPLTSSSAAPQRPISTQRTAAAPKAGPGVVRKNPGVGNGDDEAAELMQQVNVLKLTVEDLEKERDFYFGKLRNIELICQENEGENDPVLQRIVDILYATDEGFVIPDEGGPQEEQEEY

Sequence of 6xHis-tagged WT Ska1 (Q96BD8 whole entry): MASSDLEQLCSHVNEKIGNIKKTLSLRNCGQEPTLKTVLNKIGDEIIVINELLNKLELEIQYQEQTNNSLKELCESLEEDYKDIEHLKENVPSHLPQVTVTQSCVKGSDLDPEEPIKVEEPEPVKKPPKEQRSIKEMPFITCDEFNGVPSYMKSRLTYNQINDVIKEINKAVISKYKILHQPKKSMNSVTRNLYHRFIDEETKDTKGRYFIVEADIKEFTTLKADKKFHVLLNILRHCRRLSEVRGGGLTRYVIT

Regarding “6xHis-tagged WT Ska1 (from UniProt Q96BD8 1-255) (natural protein)”, the localization of Ska1 on prepolymerized MTs in vitro in the presence of EB1 (1 uM), fluorescence microscopy: WT Ska1 against Ska1 ΔSHLP (0.5 uM each) worked out at 1.6 fold.
